Sequences and labels used below:
B1: F1*; a variant is named by its letters at N, in order (parent)
chain: GAGACCGCAACTGAAAAGTTGTTATCNNNNNNNNAANNNNNTTNGNNGGGTTGAAGTTCTGCACGTAGAAGCAAAAGGC

In the data set the parent is B1. Kind of data set: fraction ligated after 30 min (ligated reads / total reads); higher = more ligase activity. Conditions: with F1*sub RNA substrate (template-directed ligation), 42 °C. On the procedure:
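Chip-synthesised pool of F1* ligase ribozyme variants (all single and double substitutions, single, double and triple deletions in the catalytic core and GAA bulge, plus designed variants) was transcribed with T7 and reacted as a pool with excess substrate F1*sub for 30 min at 42 C in 50 mM EPPS pH 8.5, 25 mM MgCl2. Ligated and unligated bands were separated by PAGE, barcoded by RT and deep sequenced; fraction ligated = ligated reads / total reads per variant, relative activity = FL / FL of wild type (0.826). Sequences are the DNA template of the ribozyme.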
As for GAGACCGCAACTGAAAAGTTGTTATCACTTTCGTAAGACATTTGGATGGGTTGAAGTTCTGCACGTAGAAGCAAAAGGC [ACTTTCGTGACATGAT], the fraction ligated stood at 0.832.
To GAGACCGCAACTGAAAAGTTGTTATCACTGTCGTAAGACCTTTGGATGGGTTGAAGTTCTGCACGTAGAAGCAAAAGGC [ACTGTCGTGACCTGAT] belongs 0.849; to GAGACCGCAACTGAAAAGTTGTTATCACTTGTCTAAGAACTTTGGATGGGTTGAAGTTCTGCACGTAGAAGCAAAAGGC [ACTTGTCTGAACTGAT], 0.787; to GAGACCGCAACTGAAAAGTTGTTATCACTTGTGTAAGAACTTTGGATGGGTTGAAGTTCTGCACGTAGAAGCAAAAGGC [ACTTGTGTGAACTGAT], 0.867.
The value for GAGACCGCAACTGAAAAGTTGTTATCCTTGTCGTAAGACCTTTGGATGGGTTGAAGTTCTGCACGTAGAAGCAAAAGGC [CTTGTCGTGACCTGAT] was 0.786; that for GAGACCGCAACTGAAAAGTTGTTATCACTTTCGTAAGACACTTTGATGGGTTGAAGTTCTGCACGTAGAAGCAAAAGGC [ACTTTCGTGACACTAT] was 0.793; that for GAGACCGCAACTGAAAAGTTGTTATCACTTTCGTAAGAACTTTGGATGGGTTGAAGTTCTGCACGTAGAAGCAAAAGGC [ACTTTCGTGAACTGAT] was 0.873.
To GAGACCGCAACTGAAAAGTTGTTATCACTTGCGTAAGACACTTGGATGGGTTGAAGTTCTGCACGTAGAAGCAAAAGGC [ACTTGCGTGACACGAT] belongs 0.801.
Turning to GAGACCGCAACTGAAAAGTTGTTATCACTTGTGTAAGACACTTGGATGGGTTGAAGTTCTGCACGTAGAAGCAAAAGGC [ACTTGTGTGACACGAT], the fraction ligated was 0.807.
Turning to GAGACCGCAACTGAAAAGTTGTTATCCTTGTCGTAAGACACTTTGGAGGGTTGAAGTTCTGCACGTAGAAGCAAAAGGC [CTTGTCGTGACACTGA], the fraction ligated amounted to 0.00758.
Regarding GAGACCGCAACTGAAAAGTTGTTATCCTTGTCGTAAGACACTTTGGTGGGTTGAAGTTCTGCACGTAGAAGCAAAAGGC [CTTGTCGTGACACTGT], the fraction ligated is 0.346.
The value for GAGACCGCAACTGAAAAGTTGTTATCCTTGTCGTAAGACATTTGGATGGGTTGAAGTTCTGCACGTAGAAGCAAAAGGC [CTTGTCGTGACATGAT] was 0.794; that for GAGACCGCAACTGAAAAGTTGTTATCCTTGTCGTAAGACACTTGGATGGGTTGAAGTTCTGCACGTAGAAGCAAAAGGC [CTTGTCGTGACACGAT] was 0.788; that for GAGACCGCAACTGAAAAGTTGTTATCACTTGTCTAAGACACTTTGGAGGGTTGAAGTTCTGCACGTAGAAGCAAAAGGC [ACTTGTCTGACACTGA] was 0.169.
The value for GAGACCGCAACTGAAAAGTTGTTATCACTTGTCTAAGACACTTTGGTGGGTTGAAGTTCTGCACGTAGAAGCAAAAGGC [ACTTGTCTGACACTGT] was 0.285; that for GAGACCGCAACTGAAAAGTTGTTATCACTTGCGTAAGACCTTTGGATGGGTTGAAGTTCTGCACGTAGAAGCAAAAGGC [ACTTGCGTGACCTGAT] was 0.815.
For the variant GAGACCGCAACTGAAAAGTTGTTATCATTGTCGTAAGCACTTTGGATGGGTTGAAGTTCTGCACGTAGAAGCAAAAGGC [ATTGTCGTGCACTGAT], the fraction ligated was determined as 0.777.
To GAGACCGCAACTGAAAAGTTGTTATCACTGTCGTAAGACATTTGGATGGGTTGAAGTTCTGCACGTAGAAGCAAAAGGC [ACTGTCGTGACATGAT] belongs 0.846.
The value for GAGACCGCAACTGAAAAGTTGTTATCACTTGTCGAAGACACTTTGATGGGTTGAAGTTCTGCACGTAGAAGCAAAAGGC [ACTTGTCGGACACTAT] was 0.769.
To GAGACCGCAACTGAAAAGTTGTTATCACTTGCGTAAGAACTTTGGATGGGTTGAAGTTCTGCACGTAGAAGCAAAAGGC [ACTTGCGTGAACTGAT] belongs 0.85.
In the case of GAGACCGCAACTGAAAAGTTGTTATCACTTGTCGAAACACTTTGGATGGGTTGAAGTTCTGCACGTAGAAGCAAAAGGC [ACTTGTCGACACTGAT], the fraction ligated was found to be 0.822.
In the case of GAGACCGCAACTGAAAAGTTGTTATCACTTGCGTAAGACATTTGGATGGGTTGAAGTTCTGCACGTAGAAGCAAAAGGC [ACTTGCGTGACATGAT], the fraction ligated stood at 0.847.
To GAGACCGCAACTGAAAAGTTGTTATCACTGTCGTAAGACACTTTGGTGGGTTGAAGTTCTGCACGTAGAAGCAAAAGGC [ACTGTCGTGACACTGT] belongs 0.694; to GAGACCGCAACTGAAAAGTTGTTATCATTGTCGTAAGAACTTTGGATGGGTTGAAGTTCTGCACGTAGAAGCAAAAGGC [ATTGTCGTGAACTGAT], 0.838; to GAGACCGCAACTGAAAAGTTGTTATCACTTGTGTAAGCACTTTGGATGGGTTGAAGTTCTGCACGTAGAAGCAAAAGGC [ACTTGTGTGCACTGAT], 0.875.
The value for GAGACCGCAACTGAAAAGTTGTTATCACTTTCGTAAGACCTTTGGATGGGTTGAAGTTCTGCACGTAGAAGCAAAAGGC [ACTTTCGTGACCTGAT] was 0.773.
GAGACCGCAACTGAAAAGTTGTTATCACTTTCGTAAGCACTTTGGATGGGTTGAAGTTCTGCACGTAGAAGCAAAAGGC [ACTTTCGTGCACTGAT]: the fraction ligated is 0.8.
Regarding GAGACCGCAACTGAAAAGTTGTTATCACTTGTCTAAGCACTTTGGATGGGTTGAAGTTCTGCACGTAGAAGCAAAAGGC [ACTTGTCTGCACTGAT], the fraction ligated was determined as 0.797.
To GAGACCGCAACTGAAAAGTTGTTATCACTTGTCGAAGCACTTTGGATGGGTTGAAGTTCTGCACGTAGAAGCAAAAGGC [ACTTGTCGGCACTGAT] belongs 0.78.
To GAGACCGCAACTGAAAAGTTGTTATCACTTGTCTAAGACATTTGGATGGGTTGAAGTTCTGCACGTAGAAGCAAAAGGC [ACTTGTCTGACATGAT] belongs 0.834; to GAGACCGCAACTGAAAAGTTGTTATCACTGTCGTAAACACTTTGGATGGGTTGAAGTTCTGCACGTAGAAGCAAAAGGC [ACTGTCGTACACTGAT], 0.84.
The value for GAGACCGCAACTGAAAAGTTGTTATCCTTGTCGTAAGACACTTTGATGGGTTGAAGTTCTGCACGTAGAAGCAAAAGGC [CTTGTCGTGACACTAT] was 0.779.
In the case of GAGACCGCAACTGAAAAGTTGTTATCACTTGTGTAAGACCTTTGGATGGGTTGAAGTTCTGCACGTAGAAGCAAAAGGC [ACTTGTGTGACCTGAT], the fraction ligated stood at 0.844.
To GAGACCGCAACTGAAAAGTTGTTATCACTTGTCGAAGAACTTTGGATGGGTTGAAGTTCTGCACGTAGAAGCAAAAGGC [ACTTGTCGGAACTGAT] belongs 0.813.
